Data reported in the supplement of paper PMC9112550, “Optimization of the antimicrobial peptide Bac7 by deep mutational scanning” (BMC Biology, 2022).

Test system: Escherichia coli TOP10
Assay: shrunken log2 fold change of peptide-encoding DNA abundance (4.5 h post-induction vs induction); higher = less antimicrobial activity (less host growth inhibition)
Conditions: time post-induction: 4.5 h; library: site-saturation at positions 5, 18, 19, 20
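Note: peptides expressed intracellularly from a pBAD plasmid library in pooled LB shake-flask culture, induced with 0.3% L-arabinose, DNA abundance read by NGS, three biological replicates, DESeq2 with apeglm shrinkage.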

In order of rising “shrunken log2 fold change” value:
1. RRIRMRPPRLPRPRPRPYWMPRP  -1.18
2. RRIRLRPPRLPRPRPRPLNQPRP  -0.917
3. RRIRYRPPRLPRPRPRPPMMPRP  -0.836
4. RRIRHRPPRLPRPRPRPHCHPRP  -0.551
5. RRIRFRPPRLPRPRPRPHYYPRP  -0.524
6. RRIRTRPPRLPRPRPRPMHNPRP  -0.503
7. RRIRYRPPRLPRPRPRPFCAPRP  -0.415
8. RRIRERPPRLPRPRPRPNVMPRP  -0.403
9. RRIRCRPPRLPRPRPRPCYCPRP  -0.399
10. RRIRTRPPRLPRPRPRPHRLPRP  -0.387
11. RRIRPRPPRLPRPRPRPSVTPRP  -0.385
12. RRIRCRPPRLPRPRPRPLECPRP  -0.354
13. RRIRLRPPRLPRPRPRPQVKPRP  -0.319
14. RRIRFRPPRLPRPRPRPKHYPRP  -0.271
15. RRIRVRPPRLPRPRPRPFIYPRP  -0.236
16. RRIRKRPPRLPRPRPRPYNWPRP  -0.155
17. RRIRVRPPRLPRPRPRPHPMPRP  -0.15
18. RRIRPRPPRLPRPRPRPCHYPRP  -0.146
19. RRIRQRPPRLPRPRPRPHIAPRP  -0.142
20. RRIRGRPPRLPRPRPRPSYGPRP  -0.137
21. RRIRVRPPRLPRPRPRPWSHPRP  -0.125
22. RRIRGRPPRLPRPRPRPHHDPRP  -0.102
23. RRIRARPPRLPRPRPRPCPCPRP  -0.0932
24. RRIRRRPPRLPRPRPRPQFLPRP  -0.0792
25. RRIRVRPPRLPRPRPRPSPLPRP  -0.0757
26. RRIRARPPRLPRPRPRPCSPPRP  -0.0746
27. RRIRERPPRLPRPRPRPELPPRP  -0.0646
28. RRIRKRPPRLPRPRPRPMIIPRP  -0.0318
29. RRIRIRPPRLPRPRPRPGKEPRP  -0.0221
30. RRIRMRPPRLPRPRPRPKMGPRP  -0.00235
31. RRIRLRPPRLPRPRPRPDIAPRP  0.024
32. RRIRARPPRLPRPRPRPAWYPRP  0.0311
33. RRIRTRPPRLPRPRPRPGLKPRP  0.0372
34. RRIRARPPRLPRPRPRPHCQPRP  0.0405
35. RRIRDRPPRLPRPRPRPPFLPRP  0.0487
36. RRIRQRPPRLPRPRPRPRQAPRP  0.0647
37. RRIRVRPPRLPRPRPRPRKTPRP  0.0951
38. RRIRNRPPRLPRPRPRPAYGPRP  0.118
39. RRIRQRPPRLPRPRPRPQHEPRP  0.119
40. RRIRWRPPRLPRPRPRPQCFPRP  0.146
41. RRIRNRPPRLPRPRPRPHARPRP  0.187
42. RRIRPRPPRLPRPRPRPSGGPRP  0.191
43. RRIRARPPRLPRPRPRPLEDPRP  0.241
44. RRIRFRPPRLPRPRPRPARHPRP  0.262
45. RRIRCRPPRLPRPRPRPTEPPRP  0.305
46. RRIRARPPRLPRPRPRPARCPRP  0.331
47. RRIRPRPPRLPRPRPRPPQAPRP  0.335
48. RRIRFRPPRLPRPRPRPPTDPRP  0.414
49. RRIRVRPPRLPRPRPRPEQPPRP  0.515
50. RRIRDRPPRLPRPRPRPRPKPRP  0.548
51. RRIRDRPPRLPRPRPRPCCWPRP  0.582
52. RRIRRRPPRLPRPRPRPRMRPRP  0.744
53. RRIRRRPPRLPRPRPRPPDHPRP  0.762
54. RRIRMRPPRLPRPRPRPKESPRP  0.939
55. RRIRKRPPRLPRPRPRPGHPPRP  0.943
56. RRIRVRPPRLPRPRPRPAGGPRP  1.15
57. RRIRGRPPRLPRPRPRPPPDPRP  1.37
58. RRIRSRPPRLPRPRPRPIVEPRP  1.56
59. RRIRCRPPRLPRPRPRPWPCPRP  1.63
60. RRIRSRPPRLPRPRPRPREGPRP  2.98
